From patent US20080058263A1 (published 2008)
Numbering of substitutions follows the chain as printed.

T1: VEGFR-3-Fc (UniProt P35916 25-328)
T1 construct: domain: first three Ig domains; conditioned supernatant of 293T cells; also called VEGFR-3-Fc fusion protein; not shown: Fc fragment of the pIg vector
T1 sequence (looked up): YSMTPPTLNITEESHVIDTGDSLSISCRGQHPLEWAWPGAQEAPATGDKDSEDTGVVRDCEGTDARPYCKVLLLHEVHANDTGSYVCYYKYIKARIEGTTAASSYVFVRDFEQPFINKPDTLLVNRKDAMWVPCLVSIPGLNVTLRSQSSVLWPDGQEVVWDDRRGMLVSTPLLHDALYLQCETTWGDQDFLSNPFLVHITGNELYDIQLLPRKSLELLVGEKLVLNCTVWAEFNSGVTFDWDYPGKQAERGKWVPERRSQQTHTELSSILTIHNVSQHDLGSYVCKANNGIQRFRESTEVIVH

B1: 21-13 (ligand)
chain: AHYNTEILKSIDNEWRKTQCMPREVCIDVGKEYPDEIEYIFKPSCVPLMRCGGCCNDEGLECVPTEESNITMQIMRITVPLSQGPKPVTISFANHTSCRCMSKLD
B2: 51-13 (ligand)
chain: B1 chain with R23I, V25T, C26L, I27V, V29I, G30F, K31Q
B3: 51-15 (ligand)
chain: B1 chain with R23I, V25T, C26L, I27V, V29I, G30F, K31Q, D57S, E61Q
B4: 21-15 (ligand)
chain: B1 chain with D57S, E61Q
B5: 32-8 (ligand)
chain: GQNHHEVVKSIDNEWRKTQCMPIETLVDIFQEFGVATNTFFKPPCVSVYRCGGCCNSEGLQCMNTSTSYLSKTLFEIKPHQGQHIGEMSFANHTSCRCMSKLD
B6: 52-8 (ligand)
chain: B5 chain with G1A, Q2H, N3Y, H4N, H5T, V7I, V8L
B7: 52-6 (ligand)
chain: B5 chain with G1A, Q2H, N3Y, H4N, H5T, V7I, V8L, S57D, Q61E
B8: 51-1 (ligand)
chain: AHYNTEILKSIDNEWRKTQCMPIETLVDIFQEYPDEIEYIFKPSCVPLMRCGGCCNDEGLECVPTEESNITMQIMRIKPHQGQHIGEMSFLQHNKCECRPKKD
B9: 51-3 (ligand)
chain: B8 chain with D57S, E61Q
B10: 51-7 (ligand)
chain: B8 chain with D57S, E61Q, L91A, Q92N, N94T, K95S, E97R, R99M, P100S, K102L
B11: 51-5 (ligand)
chain: B8 chain with L91A, Q92N, N94T, K95S, E97R, R99M, P100S, K102L
B12: 52-1 (ligand)
chain: AHYNTEILKSIDNEWRKTQCMPIETLVDIFQEFGVATNTFFKPPCVSVYRCGGCCNDEGLECVPTEESNITMQIMRIKPHQGQHIGEMSFLQHNKCECRPKKD
B13: 52-3 (ligand)
chain: B12 chain with D57S, E61Q
B14: 32-13 (ligand)
chain: GQNHHEVVKSIDNEWRKTQCMPIETLVDIFQEFGVATNTFFKPPCVSVYRCGGCCNDEGLECVPTEESNITMQIMRITVPLSQGPKPVTISFANHTSCRCMSKLD
B15: 31-2 (ligand)
chain: GQNHHEVVKSIDNEWRKTQCMPIETLVDIFQEYPDEIEYIFKPSCVPLMRCGGCCNDEGLECVPTEESNITMQIMRIKPHQGQHIGEMSFANHTSCRCMSKLD
B16: 32-7 (ligand)
chain: GQNHHEVVKSIDNEWRKTQCMPIETLVDIFQEFGVATNTFFKPPCVSVYRCGGCCNSEGLQCVPTEESNITMQIMRIKPHQGQHIGEMSFANHTSCRCMSKLD
B17: 52-7 (ligand)
chain: B16 chain with G1A, Q2H, N3Y, H4N, H5T, V7I, V8L
B18: 53-5 (ligand)
chain: AHYNTEILKSIDNEWRKTQCMPIETLVDIFQEYPDEIEYIFKPPCVSVYRCGGCCNDEGLECVPTEESNITMQIMRIKPHQGQHIGEMSFANHTSCRCMSKLD
B19: 51-9 (ligand)
chain: AHYNTEILKSIDNEWRKTQCMPIETLVDIFQEYPDEIEYIFKPSCVPLMRCGGCCNDEGLECVPTEESNITMQIMRITVPLSQGPKPVTISFLQHNKCECRPKKD
B20: 53-9 (ligand)
chain: B19 chain with S44P, P47S, L48V, M49Y
B21: 51-11 (ligand)
chain: B19 chain with D57S, E61Q
B22: 51-2 (ligand)
chain: AHYNTEILKSIDNEWRKTQCMPIETLVDIFQEYPDEIEYIFKPSCVPLMRCGGCCNDEGLECMNTSTSYLSKTLFEIKPHQGQHIGEMSFLQHNKCECRPKKD
B23: 51-4 (ligand)
chain: B22 chain with D57S, E61Q
B24: 51-8 (ligand)
chain: B22 chain with D57S, E61Q, L91A, Q92N, N94T, K95S, E97R, R99M, P100S, K102L

Target: T2, VEGFR-1-Fc (UniProt P17948 27-338)
T2 construct: domain: first three Ig domains; expressed in Drosophila S2 cells, purified on Protein A sepharose; also called VEGFR-1-Fc fusion protein; not shown: Fc fragment from the Signal-pIgPlus vector
Assay: receptor-Fc IP
Procedure, shortened: (§1)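 fusion protein at 400 ng/ml in an IP mix (PBS, 1.5% BSA, 0.06% Tween 20, 3 μg/ml heparin) was combined with sample supernatant at a 1:2 ratio. Bound ligand captured by immunoprecipitation with pentahistidine antibody.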

T2 sequence (P17948 27-338): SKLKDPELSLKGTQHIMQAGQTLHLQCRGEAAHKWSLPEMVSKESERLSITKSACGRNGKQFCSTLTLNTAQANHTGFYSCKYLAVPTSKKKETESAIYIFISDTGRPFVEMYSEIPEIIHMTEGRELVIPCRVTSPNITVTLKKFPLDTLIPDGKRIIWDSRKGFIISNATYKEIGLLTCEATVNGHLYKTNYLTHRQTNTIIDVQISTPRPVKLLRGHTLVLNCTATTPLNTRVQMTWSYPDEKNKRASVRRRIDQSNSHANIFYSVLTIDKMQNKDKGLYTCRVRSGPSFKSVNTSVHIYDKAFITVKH

Binding result, no binding:
B1, B2, B3, B4, B5, B6, B7, B8, B9, B10, B11, B12, B13, B14, B15, B16, B17, B18, B19, B20, B21, B22, B23, B24

Target: T3, VEGFR-2-Fc (UniProt P35968 20-322)
T3 construct: domain: first 3 Ig domains; conditioned supernatant of 293T cells; also called VEGFR-2-Fc fusion protein; not shown: Fc fragment of the pIg vector
Assay: receptor-Fc IP
Procedure, shortened: as §1

T3 sequence (P35968 20-322): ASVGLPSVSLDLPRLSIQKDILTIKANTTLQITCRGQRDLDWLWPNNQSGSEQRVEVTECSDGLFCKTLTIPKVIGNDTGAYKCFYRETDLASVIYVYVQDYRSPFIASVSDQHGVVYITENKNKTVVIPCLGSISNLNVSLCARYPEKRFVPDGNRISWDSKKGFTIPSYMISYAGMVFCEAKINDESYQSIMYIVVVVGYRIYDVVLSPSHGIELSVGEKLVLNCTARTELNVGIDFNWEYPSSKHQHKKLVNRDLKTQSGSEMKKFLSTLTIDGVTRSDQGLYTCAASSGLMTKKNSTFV

Binding result, no binding:
B1, B2, B3, B4, B5, B6, B7, B8, B9, B10, B11, B12, B13, B14, B15, B16, B17, B18, B19, B20, B21, B22, B23, B24

Target: T1, VEGFR-3-Fc
Assay: receptor-Fc IP
Procedure, shortened: as §1

Binding result, no binding:
B1, B2, B3, B4, B5, B6, B7, B8, B9, B10, B11, B12, B13, B14, B15, B16, B17, B18, B19, B20, B21, B22, B23, B24
